Results reported in patent US20180142038A1.

Assays:
[1] = target: Ab-A lot 9 (load; eluate from a ceramic hydroxyapatite column); assay: AGV HTRF assay as in Example 6, load of the Ab-1 NHS Sepharose column
[2] = target: Ab-A lot 9 (load; eluate from a ceramic hydroxyapatite column); assay: AGV HTRF assay as in Example 6, load of the Ab-1 Streptavidin Plus Ultralink column
[3] = target: Ab-A lot 9, pooled flow-through of the Ab-1 functionalized GE NHS-activated Sepharose 4 Fast Flow resin; assay: AGV HTRF assay as in Example 6, pooled flow-through of the Ab-1 NHS Sepharose column
[4] = target: Ab-A lot 9, pooled flow-through of the Ab-1 functionalized Pierce Streptavidin Plus Ultralink resin; assay: AGV HTRF assay as in Example 6, pooled flow-through of the Ab-1 Streptavidin Plus Ultralink column
Ab-A lot 1 = assay: AGV HTRF assay (antibody 3 nM, antigen 1 nM, Eu anti-rabbit Fc donor, anti-human XL665 acceptor), signal relative to Ab-A lot 2

Glycovariant signal in Load (POC) [1]: 9.3 POC
Glycovariant signal in Load (POC) [2]: 9.3 POC
Glycovariant signal in Flow-Through (POC) [3]: 6.3 POC
Glycovariant signal in Flow-Through (POC) [4]: 1.2 POC
percentage of control (POC), against Ab-A lot 2 (% of control (POC)) (Ab-A lot 1): 25
B1: Ab1 (antibody, V domains shown)
VH: QEQLVESGGGLVQPGASLTLTCTASGFSFSNTNYMCWVRQAPGRGLEWVGCMPVGFIASTFYATWAKGRSAISKSSSTAVTLQMTSLTVADTATYFCARESGSGWALNLWGQGTLVTVSS
VL: DPVLTQTPSPVSAAVGGTVTISCQASESVESGNWLAWYQQKPGQPPKLLIYYTSTLASGVPSRFKGSGSGAHFTLTISGVQCDDAATYYCQGAFYGVNTFGGGTEVVVKR
